Eight molecules from US20160303217A1 (ENGINEERED ANTIGENS, published 2016) can be followed below.

Assay [1] has as its target T1, porcine transferrin (porcine, UniProt P09571 1-696).
T1 construct: also called pTf; porcine Tf
Kind of assay: isothermal calorimetry, surface plasmon resonance or biolayer interferometry. Background: ITC needs no label: the signal is the heat of the interaction.

The target of assay [2] is T1, porcine transferrin. Kind of assay: solid-phase (dot) binding assay with HRP-conjugated porcine transferrin; also capture on porcine Tf-Sepharose.
The target in assay [3] is T1, porcine transferrin. Briefly: affinity capture from cell lysate on porcine Tf-Sepharose, SDS-PAGE.

For orientation: Kd means the constant that tells how readily two partners part at equilibrium.

T1 sequence (P09571 whole entry): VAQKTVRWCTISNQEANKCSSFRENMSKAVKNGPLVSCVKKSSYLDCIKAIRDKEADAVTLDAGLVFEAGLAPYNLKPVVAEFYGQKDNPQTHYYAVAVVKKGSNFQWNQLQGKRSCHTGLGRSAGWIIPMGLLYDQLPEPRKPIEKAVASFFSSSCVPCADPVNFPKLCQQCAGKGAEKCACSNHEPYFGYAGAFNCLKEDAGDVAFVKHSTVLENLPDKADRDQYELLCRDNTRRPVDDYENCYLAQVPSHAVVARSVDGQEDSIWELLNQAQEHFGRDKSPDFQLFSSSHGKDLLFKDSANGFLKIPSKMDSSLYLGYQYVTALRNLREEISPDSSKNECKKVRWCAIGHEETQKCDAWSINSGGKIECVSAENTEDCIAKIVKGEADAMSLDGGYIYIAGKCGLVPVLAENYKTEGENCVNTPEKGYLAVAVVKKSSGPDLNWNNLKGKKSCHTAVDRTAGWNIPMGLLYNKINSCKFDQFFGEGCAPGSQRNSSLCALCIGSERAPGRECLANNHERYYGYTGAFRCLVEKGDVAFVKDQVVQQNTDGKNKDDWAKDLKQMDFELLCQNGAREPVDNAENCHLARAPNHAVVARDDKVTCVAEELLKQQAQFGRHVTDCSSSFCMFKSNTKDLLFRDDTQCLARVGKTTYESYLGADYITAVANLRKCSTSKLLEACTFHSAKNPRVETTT

B1: Y174A mutant of A. pleuropneumoniae TbpB 26-528 derived from strain H87 (receptor)
chain: VNYTDEETQKRKKEELDKLMEPALGYVTKIPVNIPSVRKTEISEIDTVTDESLSLVPNEDKLRTIANENYGSVVTKSGSNTMNFVRSGYTIDVVHYGLRDKGYVYYKGVHPSKELPKGNIIVYQGEWDFTSNADLDAKRPNYNPEFNGAGAGQRVGVTSADAKERTYISKFNIDFSNKKLNGQLLTKTKENQEKLRYTVEANISGNRFRGKATATDKTDPILGKDSEHLEGGLYGPKSEELAGKFVAHDKSLFAVFSGKRGNDVLETVKIIDASKIDLTTFESSELNNFGNANVLIIDGQKIDLAGADFKNRKTVDINGKTMVAIACCSNLEYMKFGQLWQKEGEQTKDNSLFLQGERTATDKIPVGGNYKYVGTWDALVSKGTNWVAEADNNRESGYRSEFDVNFGDKKVSGKLFDKGGIVPVFMINADIKGNGFTGTANTTDTGFALDSGSSQHGNAVFSDIKVNGGFYGPTAGELGGQFHHKSDNGSVGAVFG
B1: the “fold increase in the affinity constant (Kd) against the native TbpB” value (from here on “fold increase in the affinity constant”) in the assay with porcine transferrin [1] was 100 fold.

B2: F171A mutant of ApH49 TbpB 20-528 (receptor)
chain: GVSKEEYKDVETAKKEKEQLGELMEPALGYVVKVPVSSFENKKVDISDIEVITNGNLDDVPYKANSSKYNYPDIKTKDSSLQYVRSGYVIDGEHSGSNEKGYVYYKGNSPAKELPVNQLLTYTGSWDFTSNANLNNEEGRPNYLNDDYYTKAIGKRVGLVSGDAKPAKHKYTSQFEVDFATKKMTGKLSDKEKTIYTVNADIRGNRFTGAATASDKNKGKGESYNFFSADSQSLEGGFYGPKAEEMAGKFVANDKSLFAVFSAKHNGSNVDTVRIIDASKIDLTNFSISELNNFGDASVLIIDGKKIKLAGSGFTNKHTIEINGKTMVAVACCSNLEYMKFGQLWQQAEGGKPENNSLFLQGERTATDKMPKGGNYKYIGTWDAQVSKENNWVATADDDRKAGYRTEFDVDFGNKNLSGKLFDKNGVNPVFTVDAKIDGNGFTGKAKTSDAGFALDSGSSRYENVKFNDVAVSGGFYGPTAAELGGQFHHKSENGSVGAVFG
notes: also called F171A mutation in the TbpB from A. pleuropneumoniae strain H49
Consider B2, for which the “fold increase in the affinity constant” value in the assay with porcine transferrin [1] worked out at 100 fold.

B3: native TbpB N-lobe from Actinobacillus pleuropneumoniae strain H49, fusion protein with N-terminal maltose binding protein and polyhistidine tag (receptor)
chain: CSGGKGSFDLEDVRPNKTTGVSKEEYKDVETAKKEKEQLGELMEPALGYVVKVPVSSFENKKVDISDIEVITNGNLDDVPYKANSSKYNYPDIKTKDSSLQYVRSGYVIDGEHSGSNEKGYVYYKGNSPAKELPVNQLLTYTGSWDFTSNANLNNEEGRPNYLNDDYYTKFIGKRVGLVSGDAKPAKHKYTSQFEVDFATKKMTGKLSDKEKTIYTVNADIRGNRFTGAATASDKNKGKGESYNFFSADSQSLEGGFYGPKAEEMAGKFVANDKSLFAVF
notes: also called Mbp-TbpB N-lobe; native h49 TbpB N-lobe; not shown: N-terminal polyhistidine region of the custom expression vector; TEV (tobacco etch virus) cleavage site
For B3, in the assay with porcine transferrin [2], the binding result is on record as “binds”.

B4: engineered (loop-reduced) TbpB N-lobe from Actinobacillus pleuropneumoniae strain H49, fusion protein with N-terminal maltose binding protein and polyhistidine … (receptor)
chain: GSGVSKEEYKDVETAKKEKEQLGELGELMEPALGYVVKVPVSAGKKVDISDIEVITNGNLDDVPYKANSSKYNYPDIKTKDSSLQYVRSGYVISPDGGYVYYKGNSPAKELPVNQLLTYTGSWDFTSNANLNAARPAGAGKRVGLVSGDAKERKYTSQFEVDFATKKMTGKLSDKEKTIYTVNADIRGNRFTGAATASDKNDPILSADSQSLEGGFYGPKAEEMAGKFVANDKSLFAVFSAKHNGSNV
notes: also called engineered TbpB N-lobe H49; modified N-lobe; not shown: N-terminal polyhistidine region of the custom expression vector; TEV (tobacco etch virus) cleavage site
B4: in the assay with porcine transferrin [3], the binding result is “no binding”.

B5: engineered (loop-reduced) TbpB N-lobe from Actinobacillus pleuropneumoniae strain H87, fusion protein with N-terminal maltose binding protein and polyhistidine … (receptor)
chain: GSKLMEPALGYVTKIPVGPGSEISEIDTVTDESVSGAPGVVNSGYTIDVVHYGLRDKGSVSYKGVHPSKELPKGNIIVYQGEWDFTSNAGAAGRVGVTSADAKERTYISKFNIDFSNKKLNGQLLTKTKENQEKLRYTVEANISGNRFRGKATATDKTDPILGKDSEHLEGGLYGPKSEELAGKFVAHDKSLFAVFSGKRGNDVL
notes: also called engineered TbpB N-lobe H87; not shown: N-terminal polyhistidine region of the custom expression vector; TEV (tobacco etch virus) cleavage site
Turning to B5, in the assay with porcine transferrin [3], the binding result is on record as “no binding”.

B6: Y167A mutant of H. parasuis TbpB 27-577 derived from the Nagasaki strain Hp5 (receptor)
chain: CSGGKGSFDLEDVQPNKTTGVSKEEYKDVETDKKVKEQLGELMEPALGYVVKVPVSQSGVKRTEISNPEAITDEDLNKIPNYEIIKGVAYPNYGELVDKTAAETMKYVRSGYVIDVYHSGTRDKGYVFYKGITPSKELPQGPALTYQGEWDFTSDANLNNEEGRPTALNDDYYTTWIGKRAGLVSGDAKPSKHKYTSQFKVDFATKKMTGKLSDKEKTIYTVNADIRGNRFTGSATASDKDKGKGASYNFFSVDSQSLEGGFYGPKAEEMAGKFVADDKSLFAVFSAKHNASNVNTVRIIDASKIDLTNFSISELTNFGDASVLIIDGKKMELAGSEFTNKHTIDINGKKMVAVACCSNLEYMKFGQLWQQTEGEKQVKDNSLFLQGERTATDKMPKDGNYKYIGTWDAQVSKENNYWVATADDDRKAGYRTEFDVDFGSKNLSGKLFDKNGVNPVFTVNAKIDGNGFTGEAKTSDAGFVLDPGSLRHDNVKFSDVAVSGGFYGPTAAELGGQFRYQSDNGSVGVGAVFGAKQQVKK
notes: also called Y167A TbpB; Y167A mutant TbpB
As for B6, the “fold increase in the affinity constant” value in the assay with porcine transferrin [1] turned out to be 100 fold.

B7: W176A mutant of H. parasuis TbpB 27-577 derived from the Nagasaki strain Hp5 (receptor)
chain: CSGGKGSFDLEDVQPNKTTGVSKEEYKDVETDKKVKEQLGELMEPALGYVVKVPVSQSGVKRTEISNPEAITDEDLNKIPNYEIIKGVAYPNAGELVDKTAAETMKYVRSGYVIDVYHSGTRDKGYVFYKGITPSKELPQGPALTYQGEWDFTSDANLNNEEGRPTYLNDDYYTTAIGKRAGLVSGDAKPSKHKYTSQFKVDFATKKMTGKLSDKEKTIYTVNADIRGNRFTGSATASDKDKGKGASYNFFSVDSQSLEGGFYGPKAEEMAGKFVADDKSLFAVFSAKHNASNVNTVRIIDASKIDLTNFSISELTNFGDASVLIIDGKKMELAGSEFTNKHTIDINGKKMVAVACCSNLEYMKFGQLWQQTEGEKQVKDNSLFLQGERTATDKMPKDGNYKYIGTWDAQVSKENNYWVATADDDRKAGYRTEFDVDFGSKNLSGKLFDKNGVNPVFTVNAKIDGNGFTGEAKTSDAGFVLDPGSLRHDNVKFSDVAVSGGFYGPTAAELGGQFRYQSDNGSVGVGAVFGAKQQVKK
notes: also called W176A mutation in the TbpB from H. parasuis strain HP5
With B7, the “fold increase in the affinity constant” value with porcine transferrin [1] came to 100 fold.

B8: A. suis TbpB 27-577 (amino acid 27-577) derived from strain H57, purified recombinant truncated protein (receptor)
chain: SYQDEETKKKTKEELDKLMEPTLGVEAKIPRRNRALFDKEGNRKATPDTTDELSEAQIMAIWNENIDEIPHLKELNDKTTSGLIYHSHDGKQEDKKRNLQYVRSGYVFDESYSEIVKNKNGVPYIFKNGIDGYIYYLGTSPSKELPKGNKVTYKGTWDFTSDVKTSYELSGFSDAGNGKNVAATSISDNVNRDHKVGEKLGDNEVKGVAHSSEFAVDFDNKKLTGSLYRNGYINRNKAQEVTKRYSIEADITGNRFTGKAKAEKAGDPIFTDSNYLEGGFYGPKAEEMAGKFFTNNKSLFAVFAAKSENGETTTERIIDATKIDLTQFNAKELNNFGDASVLIIDGQKIDLAGVNFKNSKTVEINGKTMVAVACCSNLEYMKFGQLWQKEGKQQVKDNSLFLQGERTATDKMPAGGNYKYVGTWDALVSKGTNWIAEADNNRESGYRTEFDVNFSDKKVNGKLFDKGGVNPVFTVDATINGNGFIGSAKTSDSGFALDAGSSQHGNAVFSDIKVNGGFYGPTAGELGGQFHHKSDNGSVGAVFGA
notes: also called AsH57 TbpB; TbpB from Actinobacillus suis
As for B8, the Kd with porcine transferrin [1] is ~120 nM.
